Ends that are not written are not given here.
Assays:
[1] = target: GAS41 YEATS domain (residues 13–158), His6-tagged, 15N-labeled (human) (UniProt O95619); assay: NMR titration
[2] = target: full-length GAS41, Avi-tagged, mono-biotinylated (human) (UniProt O95619); assay: BLI
[3] = target: GST-tagged GAS41 YEATS (residues 1–148) (human) (UniProt O95619); assay: ITC
[4] = target: GST-tagged GAS41 YEATS (residues 1–148) (human, UniProt O95619 1-148); assay: ITC
[5] = target: full-length GAS41, Avi-tagged, mono-biotinylated (human, UniProt O95619 1-227, biotin (mono-biotinylated on the Avi tag by BirA)); assay: BLI
Chain of full-length GAS41, Avi-tagged, mono-biotinylated (O95619 whole entry): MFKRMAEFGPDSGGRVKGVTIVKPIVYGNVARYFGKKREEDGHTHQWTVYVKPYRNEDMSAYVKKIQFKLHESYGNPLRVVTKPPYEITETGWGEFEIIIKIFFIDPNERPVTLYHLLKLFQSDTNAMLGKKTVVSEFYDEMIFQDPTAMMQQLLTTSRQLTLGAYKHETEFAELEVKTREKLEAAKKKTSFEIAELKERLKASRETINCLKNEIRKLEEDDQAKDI

Chain of GST-tagged GAS41 YEATS (residues 1–148) (human) (O95619 1-148): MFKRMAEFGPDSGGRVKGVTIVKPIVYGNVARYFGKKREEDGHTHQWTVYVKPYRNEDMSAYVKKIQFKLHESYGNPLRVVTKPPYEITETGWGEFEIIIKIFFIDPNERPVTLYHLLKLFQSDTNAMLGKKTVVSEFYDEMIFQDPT
Chain of GAS41 YEATS domain (residues 13–158), His6-tagged, 15N-labeled (human) (O95619 13-158): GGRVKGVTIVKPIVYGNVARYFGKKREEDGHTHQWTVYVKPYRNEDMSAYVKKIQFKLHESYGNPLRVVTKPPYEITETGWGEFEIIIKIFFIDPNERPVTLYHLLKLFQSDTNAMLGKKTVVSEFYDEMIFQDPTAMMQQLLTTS
Chain of full-length GAS41, Avi-tagged, mono-biotinylated (human) (O95619 whole entry, the tested form may be a part): as the sequence (O95619 whole entry) above
Chain of GST-tagged GAS41 YEATS (residues 1–148) (O95619 1-148): as the sequence (O95619 1-148) above

| Kd [1] [µM] | Kd [2] [µM] | Kd [3] [µM] | stoichiometry N (peptide : YEATS domain) [3] | Molecule | further results |
| --- | --- | --- | --- | --- | --- |
| > 1000 |  |  |  | H3 peptide with succinylated K27 (H3K27su) |  |
| 720 |  |  |  | H3K14ac peptide |  |
| 106 | 36 |  |  | H3K18ac peptide |  |
|  | 3.2 | 12.5 | 0.5 | H3K18acK27ac peptide |  |
|  |  | 11.1 | 0.5 | H3K23crK27cr peptide |  |
| 58 | 81 | 39 | 1 | H3K27ac peptide |  |
| 34 |  | 23.4 |  | H3K27cr peptide |  |
| 1000 |  |  |  | tripeptide AKacA |  |
|  |  |  |  | ATK(Ac)AARK(Ac)SAP [H3K23acK27ac peptide] | Kd [4]: 13.6 µM; Kd [5]: 5 µM |

Source: publication PMC6611172 (ACS chemical biology, 2018)
